The values below come from PMC10085699.

One data set addresses T1, SETX-HD-V1884T (Homo sapiens, UniProt Q7Z333 1674-2677, V1884T).
T1 sequence: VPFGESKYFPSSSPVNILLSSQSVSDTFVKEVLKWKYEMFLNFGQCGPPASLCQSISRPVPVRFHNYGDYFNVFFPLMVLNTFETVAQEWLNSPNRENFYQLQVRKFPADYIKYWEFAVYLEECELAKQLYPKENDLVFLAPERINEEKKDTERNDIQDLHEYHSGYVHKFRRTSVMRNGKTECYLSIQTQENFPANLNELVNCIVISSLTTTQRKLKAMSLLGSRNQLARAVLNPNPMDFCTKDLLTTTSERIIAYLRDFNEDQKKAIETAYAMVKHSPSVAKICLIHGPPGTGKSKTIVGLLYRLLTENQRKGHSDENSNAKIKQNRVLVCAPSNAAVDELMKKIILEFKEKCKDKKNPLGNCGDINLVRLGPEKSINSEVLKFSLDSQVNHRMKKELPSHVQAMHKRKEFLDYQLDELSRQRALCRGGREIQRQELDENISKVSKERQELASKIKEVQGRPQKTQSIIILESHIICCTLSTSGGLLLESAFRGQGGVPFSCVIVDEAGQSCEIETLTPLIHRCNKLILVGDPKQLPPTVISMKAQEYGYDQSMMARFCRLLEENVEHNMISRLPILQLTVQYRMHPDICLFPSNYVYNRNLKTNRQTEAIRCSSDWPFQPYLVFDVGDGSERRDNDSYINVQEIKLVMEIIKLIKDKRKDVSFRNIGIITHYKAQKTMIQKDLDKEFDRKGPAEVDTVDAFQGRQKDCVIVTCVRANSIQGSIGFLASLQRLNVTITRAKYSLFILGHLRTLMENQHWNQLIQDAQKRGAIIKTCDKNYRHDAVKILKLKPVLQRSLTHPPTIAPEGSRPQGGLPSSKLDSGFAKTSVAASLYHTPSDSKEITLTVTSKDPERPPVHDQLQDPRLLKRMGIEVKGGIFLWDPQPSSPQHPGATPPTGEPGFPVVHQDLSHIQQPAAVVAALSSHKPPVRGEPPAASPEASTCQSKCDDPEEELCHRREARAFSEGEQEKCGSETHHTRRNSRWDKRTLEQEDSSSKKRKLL
As to the kind of experiment: EMSA. Background: Mobility shift assays separate free from complexed probe on a gel.

The target of the next data set is T2, SETX-HD-R/H (Homo sapiens, UniProt Q7Z333 1674-2677, R2136H).
T2 sequence: T1 sequence with T211V, R463H
Briefly: EMSA.

Numbering of substitutions follows the chain as printed.

B1: ssRNA pRMS678 (61 nt) (ssRNA)
RNA: UUGUCUUCUCAUAAAUUUAAUCCCCGUACGCUUAUACUCCUUUAACUACCCAGUCUUCCCG
For the molecule B1, the binding result in the data set with SETX-HD-V1884T and in the data set with SETX-HD-R/H was “binds” throughout.
